Assay results as given in article PMC9937993, “Structures of the NDP-pyranose mutase belonging to glycosyltransferase family 75 reveal residues important for Mn^2+ coordination and substrate binding” (The Journal of Biological Chemistry, 2023).

Key:
[1] = target: MtdL E341K mutant (Marinactinospora thermotolerans SCSIO 00652); test: SEC-MALS; static light scattering (SLC): Superdex 200 Increase column on an Akta Pure L system, on-line eight-angle static light scattering detector (DAWN HELEOS II) and differential refractive index detector; molar masses by ASTRA 7.0.1
[2] = target: MtdL wildtype, His6-tagged (Marinactinospora thermotolerans SCSIO 00652); test: as above

| Substance | stoichiometry N [1] | stoichiometry N [2] |
| --- | --- | --- |
| MtdL E341K mutant (enzyme) | 2 | – |
| MtdL wildtype, His6-tagged (enzyme) | – | 4 |
